Laboratory results from PMC4791427, “Structural dynamics of the yeast Shwachman-Diamond syndrome protein (Sdo1) on the ribosome and its implication in the 60S subunit maturation” (Protein & Cell, 2016).

B1: Sdo1p domain I-II (1-169) (domain or fragment, S. cerevisiae, UniProt Q07953 1-169, looked up)
chain: MPINQPSGQIKLTNVSLVRLKKARKRFEVACYQNKVQDYRKGIEKDLDEVLQIHQVFMNVSKGLVANKEDLQKCFGTTNVDDVIEEIMHKGEIQLSEKERQLMLNKVNNEMLTIVSAKCINPVSKKRYPPTMIHKALQELKFSPVINKPAKLQALEAIKLLVSKQIIPI
notes: Sdo1p of S. cerevisiae, domains I-II, residues 1-169; cloned into pET21b; also called domains I-II; Sdo1p-I-II; source: E. coli BL21 (DE3), purified (Ni-NTA, gel filtration); not shown: His6, C-terminal, kept
B2: Sdo1p, full-length (1-250) (natural protein)
chain: MPINQPSGQIKLTNVSLVRLKKARKRFEVACYQNKVQDYRKGIEKDLDEVLQIHQVFMNVSKGLVANKEDLQKCFGTTNVDDVIEEIMHKGEIQLSEKERQLMLNKVNNEMLTIVSAKCINPVSKKRYPPTMIHKALQELKFSPVINKPAKLQALEAIKLLVSKQIIPIVRAKMKVKVAISEPSRQPELIEKISKLIASSPGESTKPELDPWTCTGLIDPVNYRDLMTLCDKKGTVQVLDMAVIDNTTHN
B3: uL16 (RPL10), in the 60S subunit (natural protein, S. cerevisiae (endogenous in S288C), UniProt P41805 1-221, looked up)
chain: MARRPARCYRYQKNKPYPKSRYNRAVPDSKIRIYDLGKKKATVDEFPLCVHLVSNELEQLSSEALEAARICANKYMTTVSGRDAFHLRVRVHPFHVLRINKMLSCAGADRLQQGMRGAWGKPHGLAARVDIGQIIFSVRTKDSNKDVVVEGLRRARYKFPGQQKIILSKKWGFTNLDRPEYLKKREAGEVKDDGAFVKFLSKKGSLENNIREFPEYFAAQA
notes: ribosomal protein uL16 (RPL10) of S. cerevisiae; met Sdo1p as a subunit of the purified 60S particle, not as an isolated protein; source: endogenous, part of the 60S subunit purified from S. cerevisiae S288C

Columns and labels:
[1] = target: T1, Sdo1p, full-length (1-250) (S. cerevisiae, UniProt Q07953 1-250); experiment: BLI; Octet RED96; Sdo1p variants (2 μg/mL) immobilised on Anti-Penta-HIS biosensors; 60S subunit 1.75-48 nmol/L in 25 mmol/L Hepes-KOH pH 7.5, 100 mmol/L KCl, 2.5 mmol/L MgCl2; association and dissociation 240 s each
T1 construct: Sdo1p, the SBDS homologue of S. cerevisiae, full-length construct, residues 1-250; cloned into pET21b; also called Sdo1p-FL; FL; source: E. coli BL21 (DE3), purified (Ni-NTA, gel filtration); not shown: His6, C-terminal, kept
T1 sequence (looked up): B2 chain

[2] = target: Sdo1p domain I-II (1-169) (S. cerevisiae) (UniProt Q07953); experiment: as above
[3] = target: The truncated domain I, II and II-III; experiment: as above
[4] = target: B3; experiment: cross-linking; CX-MS: 50 pmol 60S with full-length or truncated Sdo1p at 1:20, 25 mmol/L Hepes-KOH pH 7.5, 100 mmol/L KCl, 2.5 mmol/L MgCl2; DSS or BS3, room temperature 1 h; trypsin, LC-MS/MS, pLink FDR <5%; settings: both partners purified
[5] = target: mature 60S ribosomal subunit of S. cerevisiae (S. cerevisiae (endogenous in S288C)) (UniProt P41805); experiment: cryo-EM structure; 60S subunit (100 nmol/L) with 20-fold (dimers, 14 Å map) or 10-fold (monomers, 9 Å map) excess of full-length Sdo1p, 30°C 15 min, without crosslinking
[6] = target: T1, Sdo1p, full-length (1-250); experiment: cross-linking; CX-MS: 50 pmol 60S with full-length or truncated Sdo1p at 1:20, 25 mmol/L Hepes-KOH pH 7.5, 100 mmol/L KCl, 2.5 mmol/L MgCl2; DSS or BS3, room temperature 1 h; trypsin, LC-MS/MS, pLink FDR <5%; settings: both partners purified

## mature 60S ribosomal subunit of S. cerevisiae (from UniProt P41805 1-221) (complex)
[1]
  Kd: 18 nM
[2]
  Kd: 15 nM
[3]
  Kd: 25 to 40 nM

## B1
[4]
  binding result: binds

## B2
[5]
  stoichiometry N: 1

## B3
[6]
  binding result: binds
